Consider one sequence from paper PMC2762042.

The series addresses hnRNP G-T RRM (Homo sapiens) (UniProt O75526). Nature of the series: EMSA. Particulars: EMSA with radio-labelled T7 transcripts and 30 or 100 ng RRM protein; buffer, salt, pH and temperature not given in material. Background: In EMSA bound probe runs differently from free probe, usually more slowly.

Sequence of hnRNP G-T RRM (Homo sapiens) (O75526 8-86): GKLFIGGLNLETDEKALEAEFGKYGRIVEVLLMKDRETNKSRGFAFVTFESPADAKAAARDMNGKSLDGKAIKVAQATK

Consider “AGGUAUUGGGCUUUGGCUGAGGGCUUUUUGUUGUUGUUGUUGUUGUU [ABwt]”, for which the Kd – broadly, the free concentration of one partner at which half of the binding sites on the other are occupied at equilibrium, for simple one-to-one binding – was determined as 1.7 nM.
